The target in this assay is FLAG-SpbK (Bacillus subtilis (ICEBs1)).

The substance YonE-Myc (natural protein) returned a fold decrease in cellular levels of NAD^+ 15 to 30 minutes after induction of yonE in cells expressing spbK (untagged proteins) of 100 fold.
